Stoichiometry N data for one substance are collected here from PMC3366460.

In the assay the target is HsUbcH5b(C85S)~Ub oxyester-linked conjugate (human | mammalian) (UniProt P62837). As to the kind of experiment: pull-down.

For orientation: stoichiometry N means a count of units in the complex or per binding partner.

In turn, “HsUbcH5b(C85S)~Ub oxyester-linked conjugate (from UniProt P62837 1-147; P0CG48 1-76) (complex)” returned a stoichiometry N of 4.
